Results on 4 molecules are retold here after US20100216975A1.

Experiment [1] deals with Human EphA2-Fc fusion protein (human EphA2 fused with the Fc portion of a human IgG1) (human) (UniProt P29317). Description: single point ELISA: periplasmic Fab captured on 500 ng goat anti-human Fab, biotinylated human EphA2-Fc, neutravidin-HRP.
For experiment [2] the target is unchanged. Description: single point ELISA, 500 ng goat anti-human Fab capture, biotinylated EphA2-Fc; plate of clone VH-7E8/VL-8G7.
The target is the same in experiment [3]. The experiment in a line: single point ELISA: periplasmic Fab captured on 20 ng goat anti-human Fab, biotinylated human EphA2-Fc, neutravidin-HRP.
Experiment [4] shares this target. The experiment in a line: single point ELISA: periplasmic Fab captured on 500 ng goat anti-human Fab, biotinylated human EphA2-Fc, neutravidin-HRP. The source holds these as a separate data set.
Experiment [5] has the same target. Description: single point ELISA, 500 ng goat anti-human Fab capture, biotinylated EphA2-Fc; plate of clone VH-2G6/VL-12C8.
Experiment [6] shares this target. Description: single point ELISA, 500 ng goat anti-human Fab capture, biotinylated EphA2-Fc; plate of clone VH-233/VL-12C8.
The target is the same in experiment [7]. Description: single point ELISA: periplasmic Fab captured on 500 ng goat anti-human Fab, biotinylated human EphA2-Fc, neutravidin-HRP. This is another data set of the same source.
For experiment [8] the target is unchanged. Description: single point ELISA, 500 ng goat anti-human Fab capture, biotinylated EphA2-Fc; plate of clone VH-233/VL-8G7.
Experiment [9] has the same target. The experiment in a line: single point ELISA: periplasmic Fab captured on 100 ng goat anti-human Fab, biotinylated human EphA2-Fc, neutravidin-HRP.
The target is the same in experiment [10]. The experiment in a line: single point ELISA, 500 ng goat anti-human Fab capture, biotinylated EphA2-Fc; plate of clone VH-6H11/VL-8G7.
For experiment [11] the target is unchanged. Description: SPR (BIAcore 3000), IgG over immobilized EphA2-Fc, 1:1 Langmuir fit.
The target is the same in experiment [12]. The experiment in a line: SPR (BIAcore 3000), IgG over immobilized EphA2-Fc (~500 RU), 1:1 Langmuir fit.

Chain of Human EphA2-Fc fusion protein (human EphA2 fused with the Fc portion of a human IgG1) (human) (P29317 24-534 limits assumed): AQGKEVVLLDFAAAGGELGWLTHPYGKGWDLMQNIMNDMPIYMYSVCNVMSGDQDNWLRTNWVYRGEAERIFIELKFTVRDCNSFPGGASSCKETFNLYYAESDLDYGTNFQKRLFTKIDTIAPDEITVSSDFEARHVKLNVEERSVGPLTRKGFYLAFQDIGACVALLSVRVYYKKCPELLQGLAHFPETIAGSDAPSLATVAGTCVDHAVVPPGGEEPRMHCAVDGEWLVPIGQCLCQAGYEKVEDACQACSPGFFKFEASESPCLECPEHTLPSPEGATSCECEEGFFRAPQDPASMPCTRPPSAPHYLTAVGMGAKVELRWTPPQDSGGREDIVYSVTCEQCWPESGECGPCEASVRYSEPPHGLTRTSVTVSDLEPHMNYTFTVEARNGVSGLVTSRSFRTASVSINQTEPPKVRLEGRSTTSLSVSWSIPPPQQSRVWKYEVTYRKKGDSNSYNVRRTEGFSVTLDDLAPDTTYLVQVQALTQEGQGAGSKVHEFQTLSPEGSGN

As to irrelevant antibody (MEDI-493), the OD450 (background signal) in experiment [1] was 0.07 to 0.1; in [2] it was 0.2; in experiment [3], 0.1; in experiment [4], 0.3; in experiment [5] it was 0.3; in experiment [6], 0.1. Further, the OD450 (background signal) was 0.06 to 0.2 in experiment [7], 0.2 in [8], 0.1 to 0.4 in experiment [9] and 0.2 in experiment [10].

B1: mouse anti-human EphA2 monoclonal antibody B233 (antibody, from a related filing, V domains shown)
VH: EVKLVESGGGLVQPGGSLSLSCAASGFTFTDYSMNWVRQPPGKALEWLGFIRNKANDYTTEYSASVKGRFTISRDNSQSILYLQMNALRAEDSATYYCVRYPRYHAMDSWGQGTSVTVSS
VL: DIVLTQSPATLSVTPGDSVNLSCRASQSISNNLHWYQQKSHESPRLLIKYVFQSISGIPSRFSGSGSGTDFTLSINSVETEDFGMYFCQQSNSWPLTFGAGTKLELK
In experiment [11], B1 returned a Kd of 0.4 nM, a koff of 0.00011 s⁻¹ and a kon of 280000 M⁻¹ s⁻¹.

B2: chimaeric form of mAb B233 (VH-233/VL-233) as full length human IgG1 (antibody, from a related filing, V domains shown)
VH: B1 VH
VL: B1 VL
With B2, in [11], the Kd worked out at 0.3 nM, the koff worked out at 8e-05 s⁻¹ and the kon was 240000 M⁻¹ s⁻¹.

B3: mouse anti-human EphA2 monoclonal antibody EA2 (antibody, from a related filing, V domains shown)
VH: DVKLVESGGGLVKPGGSLKLSCAASGFTFSSYTMSWVRQTPEKRLEWVATISSGGTYTYYPDSVKGRFTISRDNAKNTLYLQMSSLKSEDTAMYYCTREAIFTYWGQGTLVTVSA
VL: DIKMTQSPSSMYASLGERVTITCKASQDINNYLSWFQQKPGKSPKTLIYRANRLVDGVPSRFSGSGSGQDYSLTISSLEYEDMGIYYCLKYDEFPYTFGGGTKLEIK
In experiment [12], B3 came in with a Kd of 5.94 nM, a koff of 0.00307 s⁻¹ and a kon of 517000 M⁻¹ s⁻¹.
